Measurements from IntAct's records for PubMed 18033301.

B1: Clathrin interactor 1 (Homo sapiens), Q14677 (parent)
chain: MLNMWKVRELVDKATNVVMNYSEIESKVREATNDDPWGPSGQLMGEIAKATFMYEQFPELMNMLWSRMLKDNKKNWRRVYKSLLLLAYLIRNGSERVVTSAREHIYDLRSLENYHFVDEHGKDQGINIRQKVKELVEFAQDDDRLREERKKAKKNKDKYVGVSSDSVGGFRYSERYDPEPKSKWDEEWDKNKSAFPFSDKLGELSDKIGSTIDDTISKFRRKDREDSPERCSDSDEEKKARRGRSPKGEFKDEEETVTTKHIHITQATETTTTRHKRTANPSKTIDLGAAAHYTGDKASPDQNASTHTPQSSVKTSVPSSKSSGDLVDLFDGTSQSTGGSADLFGGFADFGSAAASGSFPSQVTATSGNGDFGDWSAFNQAPSGPVASSGEFFGSASQPAVELVSGSQSALGPPPAASNSSDLFDLMGSSQATMTSSQSMNFSMMSTNTVGLGLPMSRSQNTDMVQKSVSKTLPSTWSDPSVNISLDNLLPGMQPSKPQQPSLNTMIQQQNMQQPMNVMTQSFGAVNLSSPSNMLPVRPQTNALIGGPMPMSMPNVMTGTMGMAPLGNTPMMNQSMMGMNMNIGMSAAGMGLTGTMGMGMPNIAMTSGTVQPKQDAFANFANFSK
partner: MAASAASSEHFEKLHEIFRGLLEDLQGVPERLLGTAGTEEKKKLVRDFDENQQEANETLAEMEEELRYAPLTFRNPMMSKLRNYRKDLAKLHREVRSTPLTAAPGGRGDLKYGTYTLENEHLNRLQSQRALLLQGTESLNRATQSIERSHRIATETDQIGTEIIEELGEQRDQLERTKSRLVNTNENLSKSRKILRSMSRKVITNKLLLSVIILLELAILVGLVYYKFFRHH
B2: Vesicle transport through interaction with t-SNAREs homolog 1B (Mus musculus), O88384 (parent)
chain: B1 partner
partner: B1 chain

Variants of: B1
Conditions: with vti1b_mouse Vti1b

| Variant | effect of a mutation on the interaction |
| --- | --- |
| F52D | disrupting interaction strength |
| R96S | disrupting interaction strength |
| R146E | disrupting interaction strength |
| M53D;Y54D | disrupting interaction strength |

Variants of: B2
Conditions: with epn4_human CLINT1, Q14677

| Variant | effect of a mutation on the interaction |
| --- | --- |
| E65W | disrupting interaction strength |
| S8W | disrupting interaction strength |
| F73S | disrupting interaction strength |
| E23R | disrupting interaction strength |
| E12A | disrupting interaction strength |
